Reference: article doi:10.1101/447052
Where two headings read alike, the source gives them in different places.

Columns and labels:
[1] = molecular target: portal protein gp19 of phage P68 (S. aureus phage P68); assay: cryo-EM structure
[2] = molecular target: tail fiber gp17 of phage P68 (in the virion) (S. aureus phage P68); assay: cryo-EM structure
[3] = molecular target: tail fiber protein gp17 of phage P68 (protein used for crystallization) (S. aureus phage P68); assay: crystal structure
[4] = molecular target: lower collar protein gp18 of phage P68 (S. aureus phage P68); assay: cryo-EM structure
[5] = molecular target: head fiber gp14 of phage P68 (S. aureus phage P68); assay: cryo-EM structure

Question: For “portal protein gp19 of phage P68 (natural protein)”, which stoichiometry N [1] is on record?
Answer: 12 subunits

Question: Which stoichiometry N [2] does the source give for “tail fiber gp17 of phage P68 (in the virion) (natural protein)” here?
Answer: 3 subunits

Question: How did the stoichiometry N [3] turn out when “tail fiber protein gp17 of phage P68 (protein used for crystallization) (natural protein)” was run?
Answer: 3 subunits

Question: With “lower collar protein gp18 of phage P68 (natural protein)” as the substance, how does the stoichiometry N [4] read?
Answer: 12 subunits

Question: With “head fiber gp14 of phage P68 (natural protein)” as the substance, how does the stoichiometry N [5] read?
Answer: 3 subunits

Question: How did the stoichiometry N ([1]; scale: inner core proteins for each portal protein) turn out when “inner core protein gp22 of phage P68 (natural protein)” was run?
Answer: 6
